Measured values as given in publication PMC2854097 (Molecular Biology of the Cell, 2010).

Molecular target: T1, GST-p23/Tmp21 (aa 1-219), from pEBG-p23/Tmp21 (full-length) (UniProt P49755 32-219)
T1 sequence (looked up): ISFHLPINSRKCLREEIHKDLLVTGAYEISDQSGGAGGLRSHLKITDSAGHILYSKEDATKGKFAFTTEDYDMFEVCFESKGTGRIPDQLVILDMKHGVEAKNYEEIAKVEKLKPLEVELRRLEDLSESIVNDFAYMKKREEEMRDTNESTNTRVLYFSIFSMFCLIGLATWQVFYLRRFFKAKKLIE
Experiment: pull-down

- fold increase in association with PMA against vehicle (densitometry): ~7 fold
B1: HA-β2-chimaerin (full-length) (natural protein, UniProt P52757-1 1-468, looked up)
chain: MAASSNSSLSGSSVSSDAEEYQPPIWKSYLYQLQQEAPRPKRIICPREVENRPKYYGREFHGIISREQADELLGGVEGAYILRESQRQPGCYTLALRFGNQTLNYRLFHDGKHFVGEKRFESIHDLVTDGLITLYIETKAAEYISKMTTNPIYEHIGYATLLREKVSRRLSRSKNEPRKTNVTHEEHTAVEKISSLVRRAALTHNDNHFNYEKTHNFKVHTFRGPHWCEYCANFMWGLIAQGVRCSDCGLNVHKQCSKHVPNDCQPDLKRIKKVYCCDLTTLVKAHNTQRPMVVDICIREIEARGLKSEGLYRVSGFTEHIEDVKMAFDRDGEKADISANVYPDINIITGALKLYFRDLPIPVITYDTYSKFIDAAKISNADERLEAVHEVLMLLPPAHYETLRYLMIHLKKVTMNEKDNFMNAENLGIVFGPTLMRPPEDSTLTTLHDMRYQKLIVQILIENEDVLF
